The values that follow come from paper PMC4960622, “Crystal structures of RidA, an important enzyme for the prevention of toxic side products” (Scientific Reports, 2016).

B1: Arabidopsis thaliana RidA, construct starting from S68 (AtRidA-S68), wild type [Arabidopsis thaliana] / itself (parent)
chain: STEKAPAALGPYSQAIKANNLVFLSGVLGLIPETGKFVSESVEDQTEQVLKNMGEILKASGADYSSVVKTTIMLADLADFKTVNEIYAKYFPAPSPARSTYQVAALPLNAKIEIECIATL

In this test the parent is B1. The test is described as follows: size-exclusion chromatography (Superdex-75). Conditions: with itself; 0.5 mg protein loaded; read off a plot. In general terms: SEC sorts molecules by how far they enter the pores of the column.
In the case of chain 1 E115A, the screen value was 11.6 mL.
As to chain 1 S99A, the screen value amounted to 11.6 mL.
On to chain 1 S13A, for which the screen value was determined as 11.4 mL.
In the case of chain 1 K69R, the screen value came to 11.4 mL.
Consider chain 1 K69A, for which the screen value amounted to 12 mL.
